Measured values: the supplement of paper PMC5998384

Key:
[1] = test system: HeLa Kyoto; test: melting temperature (median over replicates), in situ; higher = more thermally stable
[2] = test system: HeLa Kyoto; test: solubility in G1/S (NP-40 vs SDS abundance) (log2 ratio); higher = more soluble; conditions: cell cycle stage: G1/S
[3] = test system: HeLa Kyoto; test: solubility change mitosis vs G1/S (difference of NP-40 vs SDS log2 ratios) (log2 ratio difference); higher = more soluble in mitosis
[4] = test system: HeLa Kyoto; test: thermal stability score vs G1/S (z-score of summed log2 fold changes over temperatures); higher = more thermally stable than in G1/S
[5] = cell cycle stage: early G1 (4.5 h after nocodazole release)
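Wherever melting temperature (median over replicates), in situ is given: HeLa Kyoto cells synchronized by double thymidine or nocodazole block, proteins quantified by TMT10plex mass spectrometry, three independent biological replicates.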
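Wherever solubility change mitosis vs G1/S (difference of NP-40 vs SDS log2 ratios) is given: synchronized HeLa Kyoto cells (double thymidine block for G1/S, nocodazole release for mitosis), protein amounts in NP-40 versus SDS lysates quantified by mass spectrometry, three biological replicates.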
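Wherever solubility in G1/S (NP-40 vs SDS abundance) is given: HeLa Kyoto cells arrested at G1/S by double thymidine block, proteins quantified by TMT10plex mass spectrometry in mild NP-40 versus SDS extracts, three biological replicates.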
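Wherever thermal stability score vs G1/S (z-score of summed log2 fold changes over temperatures) is given: synchronized HeLa Kyoto cells, proteins quantified by TMT10plex mass spectrometry, three biological replicates, mitosis taken 0.5 h after nocodazole release, G1/S directly after double thymidine block.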

Substance	melting temperature ([1]; cell cycle stage: G1/S) [°C]	melting temperature ([1]; cell cycle stage: mitosis) [°C]	solubility in G1/S (log2) [2]	solubility change mitosis (log2) [3]	thermal stability score [4, 5]	thermal stability score ([4]; cell cycle stage: mitosis)
MAAETLLSSLLGLLLLGLLLPASLTGGVGSLNLEELSEMRYGIEILPLPVMGGQSQSSDVVIVSSKYKQRYECRLPAGAIHFQREREEETPAYQGPGIPELLSPMRDAPCLLKTKDWWTYEFCYGRHIQQYHMEDSEIKGEVLYLGYYQSAFDWDDETAKASKQHRLKRYHSQTYGNGSKCDLNGRPREAEVRFLCDEGAGISGDYIDRVDEPLSCSYVLTIRTPRLCPHPLLRPPPSAAPQAILCHPSLQPEEYMAYVQRQADSKQYGDKIIEELQDLGPQVWSETKSGVAPQKMAGASPTKDDSKDSDFWKMLNEPEDQAPGGEEVPAEEQDPSPEAADSASGAPNDFQNNVQVKVIRSPADLIRFIEELKGGTKKGKPNIGQEQPVDDAAEVPQREPEKERGDPERQREMEEEEDEDEDEDEDEDERQLLGEFEKELEGILLPSDRDRLRSEVKAGMERELENIIQETEKELDPDGLKKESERDRAMLALTSTLNKLIKRLEEKQSPELVKKHKKKRVVPKKPPPSPQPTEEDPEHRVRVRVTKLRLGGPNQDLTVLEMKRENPQLKQIEGLVKELLEREGLTAAGKIEIKIVRPWAEGTEEGARWLTDEDTRNLKEIFFNILVPGAEEAQKERQRQKELESNYRRVWGSPGGEGTGDLDEFDF [OS9]	54.4	53.8	0.241	-0.128	0.21	-0.468
MSRSYNDELQFLEKINKNCWRIKKGFVPNMQVEGVFYVNDALEKLMFEELRNACRGGGVGGFLPAMKQIGNVAALPGIVHRSIGLPDVHSGYGFAIGNMAAFDMNDPEAVVSPGGVGFDINCGVRLLRTNLDESDVQPVKEQLAQAMFDHIPVGVGSKGVIPMNAKDLEEALEMGVDWSLREGYAWAEDKEHCEEYGRMLQADPNKVSARAKKRGLPQLGTLGAGNHYAEIQVVDEIFNEYAAKKMGIDHKGQVCVMIHSGSRGLGHQVATDALVAMEKAMKRDKIIVNDRQLACARIASPEGQDYLKGMAAAGNYAWVNRSSMTFLTRQAFAKVFNTTPDDLDLHVIYDVSHNIAKVEQHVVDGKERTLLVHRKGSTRAFPPHHPLIAVDYQLTGQPVLIGGTMGTCSYVLTGTEQGMTETFGTTCHGAGRALSRAKSRRNLDFQDVLDKLADMGIAIRVASPKLVMEEAPESYKNVTDVVNTCHDAGISKKAIKLRPIAVIKG [RTCB]	53	52.4	0.171	0.0881	-2.97	-3.42
MYCBP2	51.4	50.8	-0.39	0.0594	-0.686	-0.306
MAQADIALIGLAVMGQNLILNMNDHGFVVCAFNRTVSKVDDFLANEAKGTKVVGAQSLKEMVSKLKKPRRIILLVKAGQAVDDFIEKLVPLLDTGDIIIDGGNSEYRDTTRRCRDLKAKGILFVGSGVSGGEEGARYGPSLMPGGNKEAWPHIKTIFQGIAAKVGTGEPCCDWVGDEGAGHFVKMVHNGIEYGDMQLICEAYHLMKDVLGMAQDEMAQAFEDWNKTELDSFLIEITANILKFQDTDGKHLLPKIRDSAGQKGTGKWTAISALEYGVPVTLIGEAVFARCLSSLKDERIQASKKLKGPQKFQFDGDKKSFLEDIRKALYASKIISYAQGFMLLRQAATEFGWTLNYGGIALMWRGGCIIRSVFLGKIKDAFDRNPELQNLLLDDFFKSAVENCQDSWRRAVSTGVQAGIPMPCFTTALSFYDGYRHEMLPASLIQAQRDYFGAHTYELLAKPGQFIHTNWTGHGGTVSSSSYNA [PGD]	54.4	54.4	0.123	-0.184	1.53	0.62
MASATAAAARRGLGRALPLFWRGYQTERGVYGYRPRKPESREPQGALERPPVDHGLARLVTVYCEHGHKAAKINPLFTGQALLENVPEIQALVQTLQGPFHTAGLLNMGKEEASLEEVLVYLNQIYCGQISIETSQLQSQDEKDWFAKRFEELQKETFTTEERKHLSKLMLESQEFDHFLATKFSTVKRYGGEGAESMMGFFHELLKMSAYSGITDVIIGMPHRGRLNLLTGLLQFPPELMFRKMRGLSEFPENFSATGDVLSHLTSSVDLYFGAHHPLHVTMLPNPSHLEAVNPVAVGKTRGRQQSRQDGDYSPDNSAQPGDRVICLQVHGDASFCGQGIVPETFTLSNLPHFRIGGSVHLIVNNQLGYTTPAERGRSSLYCSDIGKLVGCAIIHVNGDSPEEVVRATRLAFEYQRQFRKDVIIDLLCYRQWGHNELDEPFYTNPIMYKIIRARKSIPDTYAEHLIAGGLMTQEEVSEIKSSYYAKLNDHLNNMAHYRPPALNLQAHWQGLAQPEAQITTWSTGVPLDLLRFVGMKSVEVPRELQMHSHLLKTHVQSRMEKMMDGIKLDWATAEALALGSLLAQGFNVRLSGQDVGRGTFSQRHAIVVCQETDDTYIPLNHMDPNQKGFLEVSNSPLSEEAVLGFEYGMSIESPKLLPLWEAQFGDFFNGAQIIFDTFISGGEAKWLLQSGIVILLPHGYDGAGPDHSSCRIERFLQMCDSAEEGVDGDTVNMFVVHPTTPAQYFHLLRRQMVRNFRKPLIVASPKMLLRLPAAVSTLQEMAPGTTFNPVIGDSSVDPKKVKTLVFCSGKHFYSLVKQRESLGAKKHDFAIIRVEELCPFPLDSLQQEMSKYKHVKDHIWSQEEPQNMGPWSFVSPRFEKQLACKLRLVGRPPLPVPAVGIGTVHLHQHEDILAKTFA [DHTKD1]	51.2	51.4	-0.0401	-0.0218	-0.797	-0.271
MAAAGAAVARSPGIGAGPALRARRSPPPRAARLPRLLVLLAAAAVGPGAGGAARLYRAGEDAVWVLDSGSVRGATANSSAAWLVQFYSSWCGHCIGYAPTWRALAGDVRDWASAIRVAALDCMEEKNQAVCHDYDIHFYPTFRYFKAFTKEFTTGENFKGPDRELRTVRQTMIDFLQNHTEGSRPPACPRLDPIQPSDVLSLLDNRGSHYVAIVFESNSSYLGREVILDLIPYESIVVTRALDGDKAFLEKLGVSSVPSCYLIYPNGSHGLINVVKPLRAFFSSYLKSLPDVRKKSLPLPEKPHKEENSEIVVWREFDKSKLYTVDLESGLHYLLRVELAAHKSLAGAELKTLKDFVTVLAKLFPGRPPVKKLLEMLQEWLASLPLDRIPYNAVLDLVNNKMRISGIFLTNHIKWVGCQGSRSELRGYPCSLWKLFHTLTVEASTHPDALVGTGFEDDPQAVLQTMRRYVHTFFGCKECGEHFEEMAKESMDSVKTPDQAILWLWKKHNMVNGRLAGHLSEDPRFPKLQWPTPDLCPACHEEIKGLASWDEGHVLTFLKQHYGRDNLLDTYSADQGDSSEGGTLARGEEEEKRLTPPEVSHGDRDTQSVRPPGALGPRPALPESLHHSLDGKLQSLDGPGAHKEVGGAAPFLGVDFSSLDMSLCVVLYVASSLFLMVMYFFFRVRSRRWKVKHHHPAV [QSOX2]	54.7	54.9	0.207	0.252	-2.12	-0.982
MSRYLLPLSALGTVAGAAVLLKDYVTGGACPSKATIPGKTVIVTGANTGIGKQTALELARRGGNIILACRDMEKCEAAAKDIRGETLNHHVNARHLDLASLKSIREFAAKIIEEEERVDILINNAGVMRCPHWTTEDGFEMQFGVNHLGHFLLTNLLLDKLKASAPSRIINLSSLAHVAGHIDFDDLNWQTRKYNTKAAYCQSKLAIVLFTKELSRRLQGSGVTVNALHPGVARTELGRHTGIHGSTFSSTTLGPIFWLLVKSPELAAQPSTYLAVAEELADVSGKYFDGLKQKAPAPEAEDEEVARRLWAESARLVGLEAPSVREQPLPR [RDH13]	51.1	51.6	0.415	0.0735	-0.911	-0.156
MASVGECPAPVPVKDKKLLEVKLGELPSWILMRDFSPSGIFGAFQRGYYRYYNKYINVKKGSISGITMVLACYVLFSYSFSYKHLKHERLRKYH [ATP5J2]	53		0.148	-0.104	-0.273	1.63
MPAVSKGDGMRGLAVFISDIRNCKSKEAEIKRINKELANIRSKFKGDKALDGYSKKKYVCKLLFIFLLGHDIDFGHMEAVNLLSSNKYTEKQIGYLFISVLVNSNSELIRLINNAIKNDLASRNPTFMCLALHCIANVGSREMGEAFAADIPRILVAGDSMDSVKQSAALCLLRLYKASPDLVPMGEWTARVVHLLNDQHMGVVTAAVSLITCLCKKNPDDFKTCVSLAVSRLSRIVSSASTDLQDYTYYFVPAPWLSVKLLRLLQCYPPPEDAAVKGRLVECLETVLNKAQEPPKSKKVQHSNAKNAILFETISLIIHYDSEPNLLVRACNQLGQFLQHRETNLRYLALESMCTLASSEFSHEAVKTHIDTVINALKTERDVSVRQRAADLLYAMCDRSNAKQIVSEMLRYLETADYAIREEIVLKVAILAEKYAVDYSWYVDTILNLIRIAGDYVSEEVWYRVLQIVTNRDDVQGYAAKTVFEALQAPACHENMVKVGGYILGEFGNLIAGDPRSSPPVQFSLLHSKFHLCSVATRALLLSTYIKFINLFPETKATIQGVLRAGSQLRNADVELQQRAVEYLTLSSVASTDVLATVLEEMPPFPERESSILAKLKRKKGPGAGSALDDGRRDPSSNDINGGMEPTPSTVSTPSPSADLLGLRAAPPPAAPPASAGAGNLLVDVFDGPAAQPSLGPTPEEAFLSELEPPAPESPMALLADPAPAADPGPEDIGPPIPEADELLNKFVCKNNGVLFENQLLQIGVKSEFRQNLGRMYLFYGNKTSVQFQNFSPTVVHPGDLQTQLAVQTKRVAAQVDGGAQVQQVLNIECLRDFLTPPLLSVRFRYGGAPQALTLKLPVTINKFFQPTEMAAQDFFQRWKQLSLPQQEAQKIFKANHPMDAEVTKAKLLGFGSALLDNVDPNPENFVGAGIIQTKALQVGCLLRLEPNAQAQMYRLTLRTSKEPVSRHLCELLAQQF [AP2A1]	52	51.9	-0.0177	-0.103	0.878	2.23
MGDPSKQDILTIFKRLRSVPTNKVCFDCGAKNPSWASITYGVFLCIDCSGSHRSLGVHLSFIRSTELDSNWSWFQLRCMQVGGNASASSFFHQHGCSTNDTNAKYNSRAAQLYREKIKSLASQATRKHGTDLWLDSCVVPPLSPPPKEEDFFASHVSPEVSDTAWASAIAEPSSLTSRPVETTLENNEGGQEQGPSVEGLNVPTKATLEVSSIIKKKPNQAKKGLGAKKGSLGAQKLANTCFNEIEKQAQAADKMKEQEDLAKVVSKEESIVSSLRLAYKDLEIQMKKDEKMNISGKKNVDSDRLGMGFGNCRSVISHSVTSDMQTIEQESPIMAKPRKKYNDDSDDSYFTSSSSYFDEPVELRSSSFSSWDDSSDSYWKKETSKDTETVLKTTGYSDRPTARRKPDYEPVENTDEAQKKFGNVKAISSDMYFGRQSQADYETRARLERLSASSSISSADLFEEPRKQPAGNYSLSSVLPNAPDMAQFKQGVRSVAGKLSVFANGVVTSIQDRYGS [ARFGAP3]	51.3	51.4	0.135	-0.125	-0.314	0.332
MAQTLQMEIPNFGNSILECLNEQRLQGLYCDVSVVVKGHAFKAHRAVLAASSSYFRDLFNNSRSAVVELPAAVQPQSFQQILSFCYTGRLSMNVGDQFLLMYTAGFLQIQEIMEKGTEFFLKVSSPSCDSQGLHAEEAPSSEPQSPVAQTSGWPACSTPLPLVSRVKTEQQESDSVQCMPVAKRLWDSGQKEAGGGGNGSRKMAKFSTPDLAANRPHQPPPPQQAPVVAAAQPAVAAGAGQPAGGVAAAGGVVSGPSTSERTSPGTSSAYTSDSPGSYHNEEDEEEDGGEEGMDEQYRQICNMYTMYSMMNVGQTAEKVEALPEQVAPESRNRIRVRQDLASLPAELINQIGNRCHPKLYDEGDPSEKLELVTGTNVYITRAQLMNCHVSAGTRHKVLLRRLLASFFDRNTLANSCGTGIRSSTNDPRRKPLDSRVLHAVKYYCQNFAPNFKESEMNAIAADMCTNARRVVRKSWMPKVKVLKAEDDAYTTFISETGKIEPDMMGVEHGFETASHEGEAGPSAEALQ [NACC1]	47.6	49.4	0.142	-0.176	3.55	6.42
